According to patent US20250277036A1 (POLYGON THERAPEUTICS, published 2025):

Key:
[1] = biological target: T1, Biotinylated recombinant mouse CD8α (Sino biological #50389-M08H-B) (mouse, UniProt P01731 28-196, biotinylated (site not stated)); assay: dose-response ELISA, human IgG1 format
Description: (§1) […] of streptavidin were coated on Nunc Maxisorp 96-well plates (ThermoFisher #442404) at 100 μL/well and incubated 1 hour at room temperature. Biotinylated human CD8α (Fisher Scientific #17196181) and mouse CD8α (Sino biological #50389-M08H-B) were added at 0.5 μg/mL in 100 μL/well and incubated overnight at 4° C. Human CD4 (Sino biological #10400-H08H) was coated passively at 1 μg/mL in 100 μL/well and incubated overnight at 4° C. Plates were then blocked using 200 μL of PBS containing 4% skimmed milk for 1 hour at room temperature.
(§2) The three antibody clones (in both human IgG1 lambda and rat IgG2b kappa formats) were diluted in milk-PBS and tested at different concentrations (75, 25, 8.3, 2.8, 0.93, 0.31, 0.103, 0.034, 0.011, 0.0038, 0.0013 and 0.00042 μg/mL). 100 μL/well were incubated 1 hour at room temperature.
(§3) TMB ((3,3′,5,5′ tetramethylbenzidine) Thermo Scientific #12617087) was added for a 3-minute incubation. Reaction was stopped with H₂SO₄ and absorbance at 450 nm was read on a microplate reader (Pherastar FS, BMG Labtech).

[2] = biological target: T2, Recombinant human CD4 (Sino biological #10400-H08H) (human, UniProt P01730 26-390); assay: dose-response ELISA on coated human CD4, human IgG1 format
Description: as §1, §2, §3

[3] = biological target: T3, Biotinylated recombinant human CD8α (Fisher Scientific #17196181) (human, UniProt P01732 22-182, biotinylated (site not stated)); assay: dose-response ELISA on biotinylated human CD8α captured on streptavidin, human IgG1 format
T3 construct: Bought protein; also called hCD8α; recombinant human CD8α protein
T3 sequence (P01732 22-182 limits assumed): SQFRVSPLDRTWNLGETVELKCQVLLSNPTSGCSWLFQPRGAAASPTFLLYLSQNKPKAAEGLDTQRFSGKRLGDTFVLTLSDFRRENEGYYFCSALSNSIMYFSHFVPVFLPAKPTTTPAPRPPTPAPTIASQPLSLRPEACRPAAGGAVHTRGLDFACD
Description: as §1, §2, §3

[4] = biological target: T1, Biotinylated recombinant mouse CD8α …; assay: dose-response ELISA, rat IgG2b format
Description: as §1, §2, §3

[5] = biological target: T3, Biotinylated recombinant human CD8α …; assay: dose-response ELISA on biotinylated human CD8α captured on streptavidin, rat IgG2b format
Description: as §1, §2, §3

[6] = biological target: T2, Recombinant human CD4 (Sino biological …); assay: dose-response ELISA on coated human CD4, rat IgG2b format
Description: as §1, §2, §3

T1 sequence (P01731 28-196 limits assumed, stated change not applied): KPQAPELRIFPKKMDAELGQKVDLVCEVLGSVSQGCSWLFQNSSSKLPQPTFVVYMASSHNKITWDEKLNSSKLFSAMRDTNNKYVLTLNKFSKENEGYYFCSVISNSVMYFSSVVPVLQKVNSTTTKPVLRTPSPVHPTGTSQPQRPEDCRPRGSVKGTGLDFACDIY

Binder | EC50 [3] | EC50 [5] | binding result [1] | binding result [2] | binding result [4] | binding result [6]
MP08-R3-C11 in the rat IgG2b kappa format (antibody, V domains shown, Same VH and VL cloned into a rat IgG2b kappa format; also called MP08-R3-C11 rat IgG2b) VH: EVQLVESGGSLVKPGGSLRLSCAASGFTFSNYDMNWVRQAPGKGLEWISDISGSSSYIDYADFVKGRFTISRDNAKNSLYLQMNSLRAEDTAVYYCVRSSYYSGSGMDVWGRGTLVTVSS VL: QSVLTQPASVSGSPGQSITISCAGTSSDVGGGSSVSWYQQHPGKAPKLMIYQDSYRPSGVSNRFSGSKSGNTASLTISGLQAEDEADYYCSSYTYYSTRVFGGGTKLAVL | – | 0.48 nM | – | – | no binding (tested: 75 µg/mL (highest concentration tested)) | no binding (tested: 75 µg/mL (highest concentration tested))
MP08-R3-C11 in the human IgG1 lambda format (antibody, V domains shown, Whole human IgG1 lambda made in ExpiCHO cells; also called hMP08-R3-C11; MP08-R3-C11 human IgG1 clone) VH: EVQLVESGGSLVKPGGSLRLSCAASGFTFSNYDMNWVRQAPGKGLEWISDISGSSSYIDYADFVKGRFTISRDNAKNSLYLQMNSLRAEDTAVYYCVRSSYYSGSGMDVWGRGTLVTVSS VL: QSVLTQPASVSGSPGQSITISCAGTSSDVGGGSSVSWYQQHPGKAPKLMIYQDSYRPSGVSNRFSGSKSGNTASLTISGLQAEDEADYYCSSYTYYSTRVFGGGTKLAVL | 2.4 nM | – | no binding (tested: 75 µg/mL (highest concentration tested)) | no binding (tested: 75 µg/mL (highest concentration tested)) | – | –
MP09-R3-D03 in the rat IgG2b kappa format (antibody, V domains shown, Same VH and VL cloned into a rat IgG2b kappa format; also called MP09-R3-D03 rat IgG2b; MP09-R3-D3) VH: EVQLVESGGSLVKPGGSLRLSCAASGFTFSNYYMNWVRQAPGKGLEWISSISGSSRYIYYADFVKGRFTISRDNAKNSLYLQMNSLRAEDTAVYYCVRSSGSYFGNAMDVWGRGTLVTVSS VL: QSVLTQPASVSGSPGQSITISCAGTSSDVGGYYSVSWYQQHPGKAPKLMIYYDSSRPSGVSNRFSGSKSGNTASLTISGLQAEDEADYYCSSDTSYSTRVFGGGTKLAVL | – | 0.99 nM | – | – | no binding (tested: 75 µg/mL (highest concentration tested)) | no binding (tested: 75 µg/mL (highest concentration tested))

Second part, led by results:

EC50 [3] | EC50 [5] | Binder | binding result [1] | binding result [2] | binding result [4] | binding result [6]
0.28 nM | – | MP08-R3-F08 in the human IgG1 lambda format (antibody, V domains shown, Whole human IgG1 lambda made in ExpiCHO cells; also called hMP08-R3-F08; MP08-R3-F08 human IgG1 clone; copies: 2 + 2) VH: EVQLVESGGSLVKPGGSLRLSCAASGFTFSNNAMNWVRQAPGKGLEWISDISGSSRYIGYADFVKGRFTISRDNAKNSLYLQMNSLRAEDTAVYYCVRSSNYYDYNADAMDVWGRGTLVTVSS VL: QSVLTQPASVSGSPGQSITISCAGTSSDVGGNSYVSWYQQHPGKAPKLMIYSDSSRPSGVSNRFSGSKSGNTASLTISGLQAEDEADYYCSSYTQYSTRVFGGGTKLAVLG | no binding (tested: 75 µg/mL (highest concentration tested)) | no binding (tested: 75 µg/mL (highest concentration tested)) | – | –
– | 0.2 nM | MP08-R3-F08 in the rat IgG2b kappa format (antibody, V domains shown, Same VH and VL cloned into a rat IgG2b kappa format; also called MP08-R3-F08 rat IgG2b) VH: EVQLVESGGSLVKPGGSLRLSCAASGFTFSNNAMNWVRQAPGKGLEWISDISGSSRYIGYADFVKGRFTISRDNAKNSLYLQMNSLRAEDTAVYYCVRSSNYYDYNADAMDVWGRGTLVTVSS VL: QSVLTQPASVSGSPGQSITISCAGTSSDVGGNSYVSWYQQHPGKAPKLMIYSDSSRPSGVSNRFSGSKSGNTASLTISGLQAEDEADYYCSSYTQYSTRVFGGGTKLAVL | – | – | no binding (tested: 75 µg/mL (highest concentration tested)) | no binding (tested: 75 µg/mL (highest concentration tested))
2 nM | – | MP09-R3-D03 in the human IgG1 lambda format (antibody, V domains shown, Whole human IgG1 lambda made in ExpiCHO cells; also called hMP09-R3-D03; MP09-R3-D03 human IgG1 clone) VH: EVQLVESGGSLVKPGGSLRLSCAASGFTFSNYYMNWVRQAPGKGLEWISSISGSSRYIYYADFVKGRFTISRDNAKNSLYLQMNSLRAEDTAVYYCVRSSGSYFGNAMDVWGRGTLVTVSS VL: QSVLTQPASVSGSPGQSITISCAGTSSDVGGYYSVSWYQQHPGKAPKLMIYYDSSRPSGVSNRFSGSKSGNTASLTISGLQAEDEADYYCSSDTSYSTRVFGGGTKLAVL | no binding (tested: 75 µg/mL (highest concentration tested)) | no binding (tested: 75 µg/mL (highest concentration tested)) | – | –
